# Measurements from the supplement of paper PMC7125110.
# ± gives the standard error. Variants at the floor of the assay were thinned out.
# B1: glmS ribozyme (parent)
# chain: AUAAAAGCGCCAGAACUACAGAAAUGUAGUUGACGAGGAGGAGGUUUAUCGAAUUUUCGGCGGAUGCCUCCAAA
# Variants of: B1
# Test: self-cleavage kobs at 640 uM GlcN6P; higher = faster cleavage; RNA array
# Details: with glucosamine-6-phosphate
# Summary of the method: (§1)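 Tiles of sequenced MiSeq chips were imaged over ~14 h at 37 °C. On them, barcoded ribozyme variants had been transcribed in situ by E. coli RNA polymerase and were tracked via a hybridised Cy3 probe while glucosamine-6-phosphate (40 μM to 10 mM) in HEPES/KCl/Mg(OAc)2 buffer flowed in. Per-tile medians, normalised to baseline and to non-cleaving reference variants, were fit to one- or two-exponential decays for kobs, and weighted Michaelis–Menten fits gave kcat and KM.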
row,Variant,self-cleavage kobs at 640 uM GlcN6P [s⁻¹]
1,A53U C67G C68G,4.57e-05 ± 2.1e-05
2,C50U G59U U69A C70G,0.000556 ± 0.00018
3,A53C G60A G66A,< 1e-05
4,G60U G66A,< 1e-05
5,C50U U56A G66U,< 1e-05
6,A52C G59A U65A,< 1e-05
7,G62A G63C C70A C71U,5.14e-05 ± 2.3e-05
8,G59U G62A C70G,5.34e-05 ± 1.5e-05
9,G63C G66U,< 1e-05
10,C50G G62A C68G,0.000159 ± 4.6e-05
11,C58A G62C C70G,5.64e-05 ± 2.6e-05
12,C50G U54C G60C C61G,0.000234 ± 5.5e-05
13,C50U U57A C68A U69G C71G,8.81e-05 ± 3.4e-05
14,C50G G63C C67U,0.000103 ± 4.4e-05
15,G59A C61A,< 1e-05
16,G60U C67G C68U C70G,< 1e-05
17,G66U C68G C71A,5.91e-05 ± 2.3e-05
18,U54A U55G C67U,0.000411 ± 0.00015
19,U54C G60C C67G,< 1e-05
20,A53G G62C,< 1e-05
21,U69G C71A,6.61e-05 ± 2.3e-05

row,Variant,self-cleavage kobs at 640 uM GlcN6P [s⁻¹]
1,U55A C67A C70G,0.000113 ± 2.4e-05
2,U54A G66A C67A,0.00151 ± 0.00064
3,U57A G62A,< 1e-05
4,A52U C70G C71A,8.24e-05 ± 2.8e-05
5,U54A U55G A64C,3.35e-05 ± 1.7e-05
6,A52C A53U C67U C68U,6.36e-05 ± 3e-05
7,C50A G60C C68U,4.56e-05 ± 2.1e-05
8,C50G A52G G60U C71U,0.000392 ± 0.00013
9,U54C U55G C58A,7.47e-05 ± 1.6e-05
10,G51U G66A,< 1e-05
11,A53G G66C C71G,8.43e-05 ± 2.2e-05
12,C70U A72C,0.000987 ± 0.00042
13,C50U C58A C68U,8.66e-05 ± 2.6e-05
14,U55A C58U C61A C67A,8.67e-05 ± 2.1e-05
15,G59A U69A,< 1e-05
16,U55A G60C U65A,< 1e-05
17,G51A G63U C70G,7.13e-05 ± 2.7e-05
18,G60A C61U C70U,< 1e-05
19,C61U C68G,4.29e-05 ± 1.5e-05
20,U55G G59A C70A,< 1e-05
21,A53G U55A U65G,0.000667 ± 8.4e-05

row,Variant,self-cleavage kobs at 640 uM GlcN6P [s⁻¹]
1,C50A G62C A64G,< 1e-05
2,A53G U57C,0.000146 ± 4.6e-05
3,C58A C70A C71A,8.13e-05 ± 2.5e-05
4,U57G A64U U69G,0.000149 ± 5.9e-05
5,C50A C58U C67G,8.03e-05 ± 3.9e-05
6,C58U A64C,< 1e-05
7,A52U C68G,0.000375 ± 0.00018
8,C58G C68U C71G,5.51e-05 ± 2.4e-05
9,A53C U55G C71G,0.000116 ± 3.1e-05
10,C50G A64U C70U,0.000173 ± 5.1e-05
11,G51U G63C G66U U69A C70A,< 1e-05
12,C50G A52U G63C,< 1e-05
13,A52G U56G C67A U69C,9.46e-05 ± 1.8e-05
14,A52G C58G U65C,< 1e-05
15,G59U G62A U65A,< 1e-05
16,G51A A53G C71A,< 1e-05
17,A52C A53G G60C U65C,< 1e-05
18,C58G C61U G63U C68A,0.000162 ± 5.6e-05
19,G59U C70G,0.000548 ± 0.00023
20,U57C C67U C68A,8.67e-05 ± 4e-05
21,U55G G66A C70G,0.000126 ± 2.1e-05

# Variants of: B1
# Test: self-cleavage kobs at 2500 uM GlcN6P; higher = faster cleavage; RNA array
# Details: with glucosamine-6-phosphate
# Summary of the method: as §1
row,Variant,self-cleavage kobs at 2500 uM GlcN6P [s⁻¹]
1,A6G A33U C58A,< 1e-05
2,C50U G59U U69A C70G,7.32e-05 ± 2.9e-05
3,G60U G66A,< 1e-05
4,C50U U56A G66U,< 1e-05
5,A52C G59A U65A,< 1e-05
6,A6C G29C G51U A53G,< 1e-05
7,A6G G29C A33C U47G,< 1e-05
8,A6G C16U G40C U46A G66U,< 1e-05
9,A6U G41C U65A G66C,< 1e-05
10,G7A A39C G63A,< 1e-05
11,A6U G44U U46A A52U U56G C58U C70U,< 1e-05
12,A6G A12G U54G A64U C70G,< 1e-05
13,A6U C10A U49C C70G C71G,0.00019 ± 8.2e-05
14,A6U A14G U56A,0.000586 ± 0.00023
15,G7A A36U U46G A48C C70U C71G,< 1e-05
16,G7A C8U C10U A12C A36C U49G G60C A64U,< 1e-05
17,A6G U55A U57G C61A,< 1e-05
18,A6U C10G C50G A52G U55A C68A,0.000313 ± 7.4e-05
19,G63C G66U,< 1e-05
20,A6U G38C U47A A48G G66A U69G,< 1e-05
21,A6G A14C G38C,< 1e-05
22,C50G U54C G60C C61G,8.41e-05 ± 2.8e-05
23,A6U C8U C58G,< 1e-05
24,A6U G7C A15U G29C G38A G44A C61A,< 1e-05

row,Variant,self-cleavage kobs at 2500 uM GlcN6P [s⁻¹]
1,A6G G7A C8U C61U,< 1e-05
2,A6G G9C A33U C70U,< 1e-05
3,A6U G29A G41U U65C C68U,< 1e-05
4,G59A C61A,< 1e-05
5,A6G G29A C50G,0.000103 ± 3.9e-05
6,A6C U46C U49C G63A,< 1e-05
7,A6G A15C G63A,< 1e-05
8,U54A U55G C67U,0.000903 ± 0.00028
9,A6G G9A G38A A48G A53G C71G,< 1e-05
10,A6C C10G A36G,< 1e-05
11,A53G G62C,< 1e-05
12,A6U U45G A48U,< 1e-05
13,A6U U54G G66C C67U,< 1e-05
14,A6C G9A G32A,< 1e-05
15,U55A C67A C70G,7.88e-05 ± 1.6e-05
16,U54A G66A C67A,0.00163 ± 0.00044
17,A6G A33G U54A U56C,< 1e-05
18,A6C C8U U45G U65C C67A,< 1e-05
19,A6C U30C A39U U47A C50U A53C,< 1e-05
20,A6G C16U C58U U65G,< 1e-05
21,A6G G7U C70G,5.26e-05 ± 2.1e-05
22,A6U C10A C11G G35U,< 1e-05
23,A6C A15U G43U U54G,< 1e-05
24,G7A C8G G9C C10G A12C G13A A14G C16A G41C G66U,< 1e-05

row,Variant,self-cleavage kobs at 2500 uM GlcN6P [s⁻¹]
1,A6G A52C U65G,< 1e-05
2,A6C A33U A52G U57C C70U,< 1e-05
3,G7A G29C G38A G44C,< 1e-05
4,A6G U54C G63C,< 1e-05
5,U2G U46G A53U,0.00369 ± 0.0011
6,U54A U55G A64C,5.81e-05 ± 1.7e-05
7,A6U C58G C70A,0.00016 ± 5.2e-05
8,A52C A53U C67U C68U,9.26e-05 ± 4.1e-05
9,G7A G29U G59A G62U,< 1e-05
10,G7A G40A C71A,< 1e-05
11,C50G A52G G60U C71U,6.62e-05 ± 2.9e-05
12,A6U A53U G63U,< 1e-05
13,G7A A12G G44A U47G,< 1e-05
14,A6C U55G G59U C61A A64C,< 1e-05
15,A6C A48U C61U C70G,< 1e-05
16,U54C U55G C58A,0.000102 ± 1.2e-05
17,A6G A42C U69G,0.000462 ± 0.00019
18,G51U G66A,< 1e-05
19,A6C G13U G60U U65C,< 1e-05
20,C70U A72C,0.0035 ± 0.0017
21,A6G G60A C67G,< 1e-05
22,A6U A15U G51C,< 1e-05
23,U55A G60C U65A,< 1e-05
24,G7A G40A A53U,< 1e-05

row,Variant,self-cleavage kobs at 2500 uM GlcN6P [s⁻¹]
1,A6G A12G G51U,< 1e-05
2,G60A C61U C70U,< 1e-05
3,A6G G60U G66U,< 1e-05
4,A6C A12U C50G G51C U54A,< 1e-05
5,A6U G37C A64G,< 1e-05
6,A6U C8U G32A A33G G44A U45G,< 1e-05
7,U55G G59A C70A,< 1e-05
8,A6C G13A G38U U57G A64U,< 1e-05
9,A6C G7C G41A,< 1e-05
10,A6G G7A C16G U49C A53U C67U,< 1e-05
11,A53G U55A U65G,0.00174 ± 0.00031
12,A53G U57C,0.000159 ± 4.1e-05
13,A6C C11U G21U G32C G41U G43U U65G C68U U69G,< 1e-05
14,C58A C70A C71A,0.000492 ± 0.00012
15,U57G A64U U69G,6.09e-05 ± 1.5e-05
16,A6U C11G G44C C68G,< 1e-05
17,A52U C68G,4.62e-05 ± 8.4e-06
18,G7A A53U G59A C70U,< 1e-05
19,G7A C8U A36G G60U,< 1e-05
20,A6U C10U A15U A53G,< 1e-05
21,A6C G13C U45C,< 1e-05
22,G7A A12G G40U A48G A52C C67U,< 1e-05
23,A6U G51C U55A G66A,< 1e-05
24,A6C C11U C68U,< 1e-05

row,Variant,self-cleavage kobs at 2500 uM GlcN6P [s⁻¹]
1,A6G C34U A36C,< 1e-05
2,A6U C11U C34G G40A A52G G60A C71A,< 1e-05
3,A6U C11A G62A,< 1e-05
4,A6U C11A G29A C50U,< 1e-05
5,C50G A64U C70U,0.000192 ± 4.3e-05
6,A6G A39G U54G,0.000164 ± 4.9e-05
7,A6U G43A G51C,< 1e-05
8,C50G A52U G63C,< 1e-05
9,A52G U56G C67A U69C,0.000192 ± 5.3e-05
10,A6U G38A C50G C67U,6.17e-05 ± 1.7e-05
11,A6G A12C C16U,0.000167 ± 3.6e-05
12,G59U G62A U65A,< 1e-05
13,A6G A33C U46G,< 1e-05
14,A6G G9C G63C A64U,< 1e-05
15,C58G C61U G63U C68A,0.000151 ± 4.4e-05
16,A6G G44A A52U C61U G62A C70G C71U,< 1e-05
17,A6C U47C G63C,< 1e-05
18,U55G G66A C70G,0.000206 ± 4.7e-05
19,A6G A53C C68A,< 1e-05
20,A6U C16G G40C G41A C70A,< 1e-05

# Variants of: B1
# Test: self-cleavage kobs at 10000 uM GlcN6P; higher = faster cleavage; RNA array
# Details: with glucosamine-6-phosphate
# Summary of the method: as §1
row,Variant,self-cleavage kobs at 10000 uM GlcN6P [s⁻¹]
1,A6U A14G U56A,0.00142 ± 0.00018
2,G63C G66U,< 1e-05
3,A6U G38C U47A A48G G66A U69G,< 1e-05
4,C50G G62A C68G,0.000111 ± 2.9e-05
5,A6U G7C A15U G29C G38A G44A C61A,< 1e-05
6,A6G A52C U65G,< 1e-05
7,G7A G29C G38A G44C,< 1e-05
8,A53G U57C,0.0005 ± 8.7e-05
9,A52U C68G,1.85e-05 ± 7.8e-06
10,A52G U56G C67A U69C,0.000295 ± 8.2e-05
11,A6G A33C U46G,< 1e-05
